Experimental data reported in patent US20210338656A1, “IMMUNOSTIMULATORY AGENTS IN COMBINATION WITH ANGIOGENESIS INHIBITORS” (Alkermes Pharma Ireland Limited, priority 2020, published 2021).

Experiments:
[1] = tested on: MC38 murine colon carcinoma cells; test: Anti-tumor efficacy in subcutaneous MC38 syngeneic tumor model (tumor growth, survival); type: in vivo, mouse; conditions: for tumor growth inhibition (TGI): Day 11; for tumor growth outcome (summary in words): treatment arm summaries
Method: The characteristics of each animal study group, the administration of the test articles and timing, the collection of samples and the overall study design are as shown in Tables 1 and 2:
(68-72° F.) and 40-60% humidity.
Additional aliquots were stored at 4° C. for use within 72 hours of formulation. Just prior to administration, dosing solutions were remixed with gentle inversion.
Group mean tumor volumes were plotted versus time. When an animal exited the study because of tumor size or TR death, its final recorded tumor volume was included with the data used to calculate the mean volume. Mean tumor volumes were calculated for a group until 50% of the animals had exited the study. Kaplan-Meier plots show the percentage of animals in each group remaining in the study versus time.

[2] = tested on: conventional CD4+ T cells, CD4+ Tregs, CD8+ T cells, macrophages, dendritic cells in tumors and spleens; test: Flow cytometry of tumors and spleens of MC38 tumor-bearing mice, Day 10; type: in vivo, mouse
Method: On Day 10 spleens and tumors were collected and weighed from all animals in Groups 7 through 12 and weighed prior to processing. Tissues from four animals in each group were processed to single cell suspensions for flow cytometry analysis at CRL-NC (described below). Tissues from the remaining six animals in each group were preserved in RNAlater, stored at −80° C.
Mouse spleen samples were dissociated by gently grinding the tissue across fine mesh with RPMI-1640 media and lysing red blood cells with ACK (ammonium chloride potassium) buffer according to the manufacturer's instructions. Samples were centrifuged and washed twice with PBS.
Mouse tumor samples were dissociated according to the manufacturer's instructions using the gentleMACS™ “Tumor Dissociation Kit” protocol. Tumor samples were filtered through a 70 μm cell strainer and rinsed twice in PBS/2.5% FBS buffer to remove enzymatic buffer. Total tumor sample and plated well volumes were measured and recorded.
Total tissue volumes and Cellometer counts from each sample were recorded. Final single cell suspensions were prepared in PBS pH 7.4 at 2×10^7 cells/mL and held briefly on ice prior to flow cytometry analysis, including conventional CD4^+ T cells, CD4^+ Tregs, CD8^+ T cells, macrophages, and dendritic cells (as % CD45^+ and as cells/mg tissue).
Single cell suspensions were added into 96-well plates and stained for 30 minutes at 4° C. with 100 μL of the reconstituted Live/Dead Aqua (Life Technologies) following manufacturer's instructions. After two washes with 150 μL of Staining Buffer, Fc receptors were blocked using TruStain Fc (Biolegend) in 100 μL volume for five to ten minutes on ice prior to immunostaining. Cells were stained for 30 minutes at 37° C. with antibody panels as described in the protocol. Cells were washed twice with 150 μL of Staining Buffer and resuspended in […] Staining Buffer for analysis. For staining of internal markers such as FoxP3, cells were permeabilized with 200 μL of Transcription Factor Fixation/Permeabilization buffer (eBioscience) for 15 minutes at 4° C. according to manufacturer's instructions. After two washes with 150 μL of Permeabilization Buffer (eBioscience), internal marker staining was carried out using 0.1 μg of each antibody diluted in 100 μL of Permeabilization Buffer for 30 minutes at 4° C. protected from the light. Cells were washed twice with 150 μL of Permeabilization Buffer and resuspended in 100 μL of Staining Buffer. 100 μL of Staining Buffer containing Countbright beads were added to each sample. Isotype-control antibodies were used as negative staining controls when deemed necessary.
All data were collected on a FortessaLSR (BD) and analyzed with FlowJo software (version 10.0.7r2, Tree Star, Inc.). Cell populations were defined as described in the protocol, and the gating strategy was determined by initial gating on singlets (FSC-H vs. FSCA) and then live cells, based on Live/Dead Aqua viability staining.

Row | Molecule | tumor growth inhibition (TGI) ([1]; lucitanib monotherapy 10 mg/kg p.o. daily) [%] | median survival time ([1]; lucitanib monotherapy 10 mg/kg p.o. daily for 28 days, vehicle 15 days) [days] | tumor growth outcome (summary in words) [1] | macrophages in spleens and tumors [2] | conventional CD4+ T cells in spleen ([2]; compared to vehicle) | tumor growth inhibition (TGI) ([1]; SEQ ID NO: 2 monotherapy 1.5 mg/kg s.c. once every 3 days) [%] | tumor growth inhibition (TGI) ([1]; SEQ ID NO: 2 monotherapy 3 mg/kg s.c. once every 3 days) [%] | median survival time ([1]; SEQ ID NO: 2 monotherapy 1.5 mg/kg s.c.) [days] | median survival time ([1]; SEQ ID NO: 2 monotherapy 3 mg/kg s.c.) [days] | complete response (number) ([1]; SEQ ID NO: 2 monotherapy arms) | durable complete tumor regressions ([1]; either dose (1.5 or 3 mg/kg) of SEQ ID NO: 2 monotherapy, groups pooled) | CD4+ Tregs in spleens [2] | CD8+ T cells in spleens and tumors [2] | Foxp3+ regulatory T cells (Tregs) [2] | dendritic cells in spleens and tumors [2] | numbers of conventional CD4+ T cells in tumors ([2]; compared to vehicle) | peripheral CD8+ T cell expansion ([2]; compared to vehicle)
1 | CNC(=O)c1cccc2cc(Oc3ccnc4cc(OCC5(N)CC5)c(OC)cc34)ccc12 [Lucitanib, 6-(7-((1-Aminocyclopropyl)-methoxy)-6-methoxyquinolin-4-yloxy)-N-methyl-1-naphthamide] | 100 | 39 | transient inhibition of tumor growth | decrease | increase |  |  |  |  |  |  |  |  |  |  |  | 
2 | SEQ ID NO: 2: mouse ortholog construct (murine surrogate) of the circularly permuted IL-2/IL-2Rα fusion protein of SEQ ID NO: 1 (protein, Mouse cpIL-2IL-2R-alpha) SKSFQLEDAENFISNIRVTVVKLKGSDNTFECQFDDESATVVDFLRRWIAFCQSIISTSPQGGSSSTQQQQQHLEQLLMDLQELLSRMENYRNLKLPRMLTFKFYLPKQATELKDLQCLEDELGPLRHVLDLTQGSGGGSELCLYDPPEVPNATFKALSYKNGTILNCECKRGFRRLKELVYMRCLGNSWSSNCQCTSNSHDKSRKQVTAQLEHQKEQQTTTDMQKPTQSMHQENLTGHCREPPPWKHEDSKRIYHFVEGQSVHYECIPGYKALQRGPAISICKMKCGKTGWTQPQLTCVDGSHHHHHH |  |  | modest tumor growth inhibition | decrease | decreased | 25 | 51 | 18 | 22 | 1 | 1/20 | decrease | increase | without an increase | increase | neither treatment with SEQ ID NO: 2 nor the combination with lucitanib changed the numbers | significant peripheral CD8^+ T cell expansion
